How the values were obtained:
Assay in all cases: high-speed atomic force microscopy (HS-AFM); channel held by its C-terminal His-tag on Ni2+-coated mica, reconstituted into a DMPC bilayer, extracellular side imaged; 20 mM Tris pH 7.4, 150 mM NaCl (WT, E32Q/N49K) or 50 mM NaCl (N49K); 5 or 10 frames/s; no membrane potential
[1] = target: NavAb channel E32Q/N49K mutant, C-terminal cytoplasmic domain truncated, C-terminal His-tag (Arcobacter butzleri) (UniProt A8EVM5)
[2] = target: NavAb channel N49K mutant, C-terminal cytoplasmic domain truncated, C-terminal His-tag (Arcobacter butzleri) (UniProt A8EVM5)
[3] = target: NavAb channel, wild type, C-terminal cytoplasmic domain truncated, C-terminal His-tag (Arcobacter butzleri) (UniProt A8EVM5)

Work on “NavAb channel E32Q/N49K mutant, C-terminal cytoplasmic domain truncated, C-terminal His-tag (from UniProt A8EVM5 1-230) (natural protein)” yielded a size of the VSD-VSD oligomer between channels [1] of 2 and a stoichiometry N [1] of 4.
“NavAb channel N49K mutant, C-terminal cytoplasmic domain truncated, C-terminal His-tag (from UniProt A8EVM5 1-230) (natural protein)” gave a stoichiometry N [2] of 4.
“NavAb channel, wild type, C-terminal cytoplasmic domain truncated, C-terminal His-tag (from UniProt A8EVM5 1-230) (natural protein)” was tested, and the stoichiometry N [3] was 4.

Reference: publication PMC10730821
